Data published in PMC12884772, “Macrophagic Sclerostin Loop2‐ApoER2 Interaction Required by Sclerostin for Cardiovascular Protective Action” (Advanced Science, 2025).

Molecular target: His-sclerostin loop2 (Limits are not printed (Table S1 not shown). Loop2 taken by convention as the cystine-knot segment Cys-Cys, mature 84-109 in mouse. The paper's mature numbering (I94..W99, with V97 specific to mouse))
Sequence (chain, as listed by the source): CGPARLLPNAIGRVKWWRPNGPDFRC
Experiment: BLI; His-sclerostin loop2 loaded on anti-penta-HIS (HIS1K) biosensors, immersed in ApoER2-LA7 at different concentrations
Details: both partners purified

B1: ApoER2-LA7 (P290-L326) (peptide)
peptide: PCRENEFQCGDGTCVLAIKRCNQERDCPDGSDEAGCL
notes: LDLR type A repeat 7 (LA7) of ApoER2, P290-L326; The form with D-residues at the first and last three positions was used only in vivo and is not this molecule; also called ApoER2-Pep; ApoER2 peptide tool
Q: B1 was tested. Which Kd did it give?
A: 1.9 µM
